Target: subtilisin pS169 (A1C mutant of S189), labeled with Alexafluor 350 maleimide (Bacillus amyloliquefaciens)

- Kd: < 1 nM
Substance: P1 (residues 1−77 of pG12), the prodomain product left after cleavage (domain or fragment)

Reference: article PMC2979009
